Article PMC11701221, “WhiA transcription factor provides feedback loop between translation and energy production in a genome-reduced bacterium” (Frontiers in Microbiology, 2024)

What was measured:
Mgal-WhiA [1] = target: T1, Mgal-WhiA (Mycoplasmoides gallisepticum, UniProt A0A0F6CKV5); experiment: microscale thermophoresis, Cy5-labelled protein, Hill fit; type: binding
T1 construct: E. coli BL21-Gold (DE3); monomer without DNA; Cy5 NHS-ester labelled for ATP MST
T1 sequence (A0A0F6CKV5 1-295): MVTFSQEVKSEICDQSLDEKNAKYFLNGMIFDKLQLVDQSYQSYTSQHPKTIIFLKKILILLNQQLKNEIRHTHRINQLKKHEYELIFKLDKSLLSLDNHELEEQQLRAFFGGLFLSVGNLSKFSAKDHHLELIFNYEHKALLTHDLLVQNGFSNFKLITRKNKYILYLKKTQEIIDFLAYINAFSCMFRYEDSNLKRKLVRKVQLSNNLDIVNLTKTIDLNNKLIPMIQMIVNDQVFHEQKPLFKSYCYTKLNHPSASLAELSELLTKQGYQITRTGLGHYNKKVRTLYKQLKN

Mgal-WhiA [2] = target: T2, Mgal-WhiA (Mycoplasma gallisepticum S6, UniProt A0A0F6CKV5 1-295); experiment: FRET; with Q3 core duplex; strong quenching; EMSA: 20 mM carbonate pH 9.8, 6% glycerol, 37 C 10 min, gel at 10 C; MST: PBS (10 mM Na phosphate pH 7.4, 140 mM NaCl, 3 mM KCl), 0.05% Tween-20, 50 mM imidazole, 50 nM duplex, 20 C; settings: protein: recombinant; label: 5' 6-FAM on strand 1; blunt
Mgal-WhiA [3] = target: T2, Mgal-WhiA; experiment: EMSA; 1 mM ATP; total binding; unit not printed (nM implied); EMSA: 20 mM carbonate pH 9.8, 6% glycerol, 37 C 10 min, gel at 10 C; MST: PBS (10 mM Na phosphate pH 7.4, 140 mM NaCl, 3 mM KCl), 0.05% Tween-20, 50 mM imidazole, 50 nM duplex, 20 C; settings: protein: recombinant, blunt
Mgal-WhiA Lys-170 = Mgal-WhiA Lys-170 (Mycoplasma gallisepticum S6, UniProt A0A0F6CKV5 1-295, K171G); experiment: EMSA; dimeric complex favoured; EMSA: 20 mM carbonate pH 9.8, 6% glycerol, 37 C 10 min, gel at 10 C; MST: PBS (10 mM Na phosphate pH 7.4, 140 mM NaCl, 3 mM KCl), 0.05% Tween-20, 50 mM imidazole, 50 nM duplex, 20 C; settings: protein: recombinant; label: 5' FAM (EMSA) or HEX (MST) on strand 1; blunt
Mgal-WhiA [4] = target: T2, Mgal-WhiA; experiment: EMSA; no ATP; monomer complex; EMSA: 20 mM carbonate pH 9.8, 6% glycerol, 37 C 10 min, gel at 10 C; MST: PBS (10 mM Na phosphate pH 7.4, 140 mM NaCl, 3 mM KCl), 0.05% Tween-20, 50 mM imidazole, 50 nM duplex, 20 C; settings: protein: recombinant; label: 5' FAM (EMSA) or HEX (MST) on strand 1; blunt
Mgal-WhiA [5] = target: T2, Mgal-WhiA; experiment: EMSA; 1 mM ATP; monomer complex; EMSA: 20 mM carbonate pH 9.8, 6% glycerol, 37 C 10 min, gel at 10 C; MST: PBS (10 mM Na phosphate pH 7.4, 140 mM NaCl, 3 mM KCl), 0.05% Tween-20, 50 mM imidazole, 50 nM duplex, 20 C; settings: protein: recombinant; label: 5' FAM (EMSA) or HEX (MST) on strand 1; blunt
Mgal-WhiA [6] = target: T2, Mgal-WhiA; experiment: MST; no ATP; Hill n = 1.8 ± 0.2; EMSA: 20 mM carbonate pH 9.8, 6% glycerol, 37 C 10 min, gel at 10 C; MST: PBS (10 mM Na phosphate pH 7.4, 140 mM NaCl, 3 mM KCl), 0.05% Tween-20, 50 mM imidazole, 50 nM duplex, 20 C; settings: protein: recombinant; label: 5' FAM (EMSA) or HEX (MST) on strand 1; blunt
Mgal-WhiA [7] = target: T2, Mgal-WhiA; experiment: EMSA; no ATP; total binding; EMSA: 20 mM carbonate pH 9.8, 6% glycerol, 37 C 10 min, gel at 10 C; MST: PBS (10 mM Na phosphate pH 7.4, 140 mM NaCl, 3 mM KCl), 0.05% Tween-20, 50 mM imidazole, 50 nM duplex, 20 C; settings: protein: recombinant, blunt
Mgal-WhiA [8] = target: T2, Mgal-WhiA; experiment: MST; 1 mM ATP; n = 1; multistep curve; EMSA: 20 mM carbonate pH 9.8, 6% glycerol, 37 C 10 min, gel at 10 C; MST: PBS (10 mM Na phosphate pH 7.4, 140 mM NaCl, 3 mM KCl), 0.05% Tween-20, 50 mM imidazole, 50 nM duplex, 20 C; settings: protein: recombinant; label: 5' FAM (EMSA) or HEX (MST) on strand 1; blunt
Mgal-WhiA Lys-216 = Mgal-WhiA Lys-216 (Mycoplasma gallisepticum S6, UniProt A0A0F6CKV5 1-295, K217G); experiment: MST; EMSA: 20 mM carbonate pH 9.8, 6% glycerol, 37 C 10 min, gel at 10 C; MST: PBS (10 mM Na phosphate pH 7.4, 140 mM NaCl, 3 mM KCl), 0.05% Tween-20, 50 mM imidazole, 50 nM duplex, 20 C; settings: protein: recombinant; label: 5' FAM (EMSA) or HEX (MST) on strand 1; blunt
Mgal-WhiA Ser-258 = Mgal-WhiA Ser-258 (Mycoplasma gallisepticum S6, UniProt A0A0F6CKV5 1-295, S259G); experiment: as above; settings: protein: recombinant; label: 5' FAM (EMSA) or HEX (MST) on strand 1; blunt
Mgal-WhiA [9] = target: T2, Mgal-WhiA; experiment: EMSA; monomer complex; printed as with ATP, order probably swapped (no ATP likely); EMSA: 20 mM carbonate pH 9.8, 6% glycerol, 37 C 10 min, gel at 10 C; MST: PBS (10 mM Na phosphate pH 7.4, 140 mM NaCl, 3 mM KCl), 0.05% Tween-20, 50 mM imidazole, 50 nM duplex, 20 C; settings: protein: recombinant; label: 5' FAM on strand 1; blunt
Mgal-WhiA [10] = target: T2, Mgal-WhiA; experiment: EMSA; monomer complex; printed as without ATP, order probably swapped (1 mM ATP likely); EMSA: 20 mM carbonate pH 9.8, 6% glycerol, 37 C 10 min, gel at 10 C; MST: PBS (10 mM Na phosphate pH 7.4, 140 mM NaCl, 3 mM KCl), 0.05% Tween-20, 50 mM imidazole, 50 nM duplex, 20 C; settings: protein: recombinant; label: 5' FAM on strand 1; blunt
Mgal-WhiA [11] = target: T2, Mgal-WhiA; experiment: MST; 1 mM ATP; multistep curve, conflicts with EMSA; EMSA: 20 mM carbonate pH 9.8, 6% glycerol, 37 C 10 min, gel at 10 C; MST: PBS (10 mM Na phosphate pH 7.4, 140 mM NaCl, 3 mM KCl), 0.05% Tween-20, 50 mM imidazole, 50 nM duplex, 20 C; settings: protein: recombinant; label: 5' FAM (EMSA) or HEX (MST) on strand 1; blunt
[12] = label: 5' FAM (EMSA) or HEX (MST) on strand 1

Q: With `Nc1ncnc2c1ncn2[C@@H]1O[C@H](COP(=O)(O)OP(=O)(O)OP(=O)(O)O)[C@@H](O)[C@H]1O` [ATP] as the molecule, how does the Kd (Mgal-WhiA [1]) read?
A: The Kd was 5000 ± 100 µM.

B1: WhiA-F1 (aux half-site) (dsDNA)
DNA 1: AACCGTTGTCAAGTATC
DNA 2: GATACTTGACAACGGTT
Q: Does B1 bind (Mgal-WhiA [2])?
A: Result: binds

B2: rpsJ WT (dsDNA)
DNA 1: AAAGATTGCTGATACACCAAAAACCGTTGTCAAGTATCAG
DNA 2: CTGATACTTGACAACGGTTTTTGGTGTATCAGCAATCTTT
Q: With B2 as the molecule, how does the Kd (Mgal-WhiA [3]; [12]) read?
A: The Kd was 0.68 ± 0.09 µM.

Q: Does B2 bind (Mgal-WhiA Lys-170)?
A: Result: binds

Q: And the Kd (Mgal-WhiA [4])?
A: Its Kd is 0.61 ± 0.1 µM.

Q: And the Kd (Mgal-WhiA [5])?
A: Its Kd is 0.24 ± 0.07 µM.

Q: And the Kd (Mgal-WhiA [6])?
A: The Kd was 0.7 ± 0.1 µM.

Q: And the Kd (Mgal-WhiA [7]; [12])?
A: Its Kd is 0.7 ± 0.08 µM.

Q: What about the Kd (Mgal-WhiA [8]) of the same molecule?
A: The Kd was 0.088 ± 0.012 µM.

Q: And the Kd (Mgal-WhiA Lys-216)?
A: Its Kd is 1.7 ± 0.1 µM.

Q: What about the Kd (Mgal-WhiA Ser-258) of the same molecule?
A: The Kd was 2.6 ± 0.2 µM.

B3: Mut1 (dsDNA)
DNA 1: AAAGATTGCTGATACACCAAAAACCAGACTCAAGTATCAG
DNA 2: CTGATACTTGAGTCTGGTTTTTGGTGTATCAGCAATCTTT
Q: With B3 as the molecule, how does the Kd (Mgal-WhiA [3]; label: 5' FAM on strand 1) read?
A: Its Kd is 0.43 ± 0.09 µM.

Q: What about the Kd (Mgal-WhiA [7]; label: 5' FAM on strand 1) of the same molecule?
A: The Kd was 0.75 ± 0.03 µM.

Q: And the Kd (Mgal-WhiA [9])?
A: The Kd was 0.85 ± 0.13 µM.

Q: What about the Kd (Mgal-WhiA [10]) of the same molecule?
A: The Kd was 0.29 ± 0.18 µM.

B4: Negative control (plsC promoter) (dsDNA)
DNA 1: AGCGATAAGTTTTACGAATTAAGTCGTTTATTATATAATA
DNA 2: TATTATATAATAAACGACTTAATTCGTAAAACTTATCGCT
Q: B4 was tested. Which Kd (Mgal-WhiA [11]) did it give?
A: The Kd was 0.12 ± 0.05 µM.
